Experimental data as given in the supplement of paper PMC9732359.
± gives the uncertainty stated by the source.

Assay: protein stability index of a GFP-peptide fusion (yeast GPS) (PSI 1-4); higher = more stable; sorted into four equal gates, so the index is relative within each strain
Procedure, shortened: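 Yeast carrying a pooled library were grown to mid-log phase in leucine-free medium. Each library plasmid expresses Cherry and has a tiled 17-residue yeast protein peptide fused downstream of GFP. Cells were sorted into four equal gates by GFP/Cherry ratio, and plasmids from each gate were PCR-amplified, Illumina-sequenced and assigned to strains by barcode. Summing, across gates, the read frequency times the gate number gave each peptide's protein stability index.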

Sequence	protein stability index (doa10∆)	protein stability index (pdr5∆)	protein stability index (san1∆)	protein stability index (ubr1∆)
GQLLKDHLIIEPEEEKS [ARP9]	2.15 ± 0.084	1.77 ± 0.066	1.6 ± 0.096	1.71 ± 0.038
RAQEEVKRIQSVPLVIG [RPT3]	3.52 ± 0.13	3.16 ± 0.15	3.04 ± 0.11	3.21 ± 0.066
TGGLFGAKPAGSTGGLG [YGL172W/NUP49]	3.39 ± 0.13	3.42 ± 0.24	3.23 ± 0.1	3.54 ± 0.07
TYEMRIHKRYIDLEAPV [RPS20]	2.17 ± 0.16	2.71 ± 0.15		2.51 ± 0.28
TETLTSKKIVPSPKKVA [SIR4]	2.77 ± 0.089	2.87 ± 0.083	2.63 ± 0.066	2.55 ± 0.12
IDGCVKIGDLGLARKFH [SSN3]	2.98 ± 0.078	3.33 ± 0.08	3.14 ± 0.058	3.37 ± 0.043
YRNFMVNSYRLNPNEYF [SWI3]	1.69 ± 0.12	1.45 ± 0.058	2.3 ± 0.1	2.46 ± 0.075
CANKYMTTVSGRDAFHL [RPL10]	2.24 ± 0.24	2.64 ± 0.15	1.74 ± 0.2	1.92 ± 0.1
HGLILELQKIWQIEEAG [SRB5]	2.86 ± 0.094	2.93 ± 0.091	3.19 ± 0.048	3.14 ± 0.043
YDALLSINVHSNNITSG [RET1]	2.52 ± 0.061	2.66 ± 0.057	2.59 ± 0.059	2.76 ± 0.04
LIAVYYSFGGLLMRLEG [RPB8]	2.69 ± 0.059	2.79 ± 0.076	3.07 ± 0.1	2.89 ± 0.069
LVLLELVSSGDRFIELI [YML103C/NUP188]	2.56 ± 0.1	2.08 ± 0.07	2.21 ± 0.068	2.3 ± 0.088
DDRVDKKFVSQIQKNVD [POP3]	3.22 ± 0.073	3.44 ± 0.12	3.29 ± 0.064	3.44 ± 0.051
AGAGEANGTVVSFIKNG [MTR3]	1.79 ± 0.16	2.53 ± 0.2		2.21 ± 0.11
EQLSEEDAKLKTDLELL [RPN1]	3.13 ± 0.15	3.25 ± 0.069	3.25 ± 0.1	3 ± 0.13
WEQLKITVVPVVAAAED [QCR6]	1.89 ± 0.059	2.14 ± 0.059	1.99 ± 0.099	2.03 ± 0.033
QHLQQLKMQQQQQQQQQ [GAL11]	2.21 ± 0.077	2.23 ± 0.059	2.02 ± 0.12	2.09 ± 0.061
AKRAQFRKKRKFELGRQ [RPS8A]	3.24 ± 0.08	3.28 ± 0.077	3.31 ± 0.066	3.02 ± 0.081
NDPAREKFSSFIESIVV [SNF12]	2.78 ± 0.056	2.8 ± 0.058	2.27 ± 0.071	2.77 ± 0.04
VDASPNDVTRRTVKNIL [CSL4]	3.19 ± 0.085	3.18 ± 0.085	3.1 ± 0.078	3.3 ± 0.063
KVLKSGSGVDSSKLQLT [RRP42]	2.94 ± 0.14	2.94 ± 0.1	3.16 ± 0.074	3.29 ± 0.1

Sequence	protein stability index (doa10∆)	protein stability index (pdr5∆)	protein stability index (san1∆)	protein stability index (ubr1∆)
LFGNNNTNNINNSSSGM [YGL172W/NUP49]	3.38 ± 0.16	3.42 ± 0.14	3 ± 0.12	3.13 ± 0.13
IRDNKLVSEKIINSTAL [RPC82]	3.24 ± 0.2	3.24 ± 0.12	2.99 ± 0.19	3.14 ± 0.11
LYQSKGRYMEALALYVD [SRP68]	1.86 ± 0.076	1.9 ± 0.14	1.9 ± 0.15	2 ± 0.11
TPSTSSNGEFIPHIFYS [CSE2]	2.36 ± 0.054	2.44 ± 0.043	2.62 ± 0.044	2.82 ± 0.048
KPSFSFGVPNSSKNETS [YLR335W/NUP2]	2.13 ± 0.077	1.64 ± 0.082	2.46 ± 0.098	1.5 ± 0.059
QETQHGNITRGLAVGLA [RPN2]	3.08 ± 0.074	2.55 ± 0.096	2.73 ± 0.062	2.88 ± 0.04
SGLFVDVKKRTYEAIDV [RPB2]	2.48 ± 0.12	3.28 ± 0.12	2.99 ± 0.1	3.14 ± 0.097
NVDYYNVAHRIKEDIKK [SNF2]	3.32 ± 0.065	3.17 ± 0.066	3.11 ± 0.04	3.02 ± 0.046
DVDQHGNDNNSDSNANA [SWI3]	3.01 ± 0.045	3.25 ± 0.046	3.245 ± 0.028	3.249 ± 0.028
FEEDEKNSDVWFLDHNY [RPN8]	2.7 ± 0.077	1.73 ± 0.073	1.5 ± 0.14	1.48 ± 0.084
KIFTPNLLQISAAELER [SNF5]	1.77 ± 0.064	1.97 ± 0.061	1.76 ± 0.1	1.33 ± 0.066
KNSRVELQKIYDRHQSS [SMC4]	3.46 ± 0.098	3.01 ± 0.15	3.37 ± 0.11	3.14 ± 0.11
PQRLQRKRHQRALKVRN [RPS6A]	2.96 ± 0.1	2.9 ± 0.069	2.64 ± 0.096	2.87 ± 0.046
SNKPCMGIVQDTLCGIR [RPO21]	2.45 ± 0.065	1.8 ± 0.067	2.15 ± 0.073	1.77 ± 0.088
GPHKGKAPRILSTGRKF [RPL18A]	2.81 ± 0.26		3.21 ± 0.16	2.92 ± 0.13
DFDDFLKLGLVEYLDVN [RET1]	3.01 ± 0.092	3.07 ± 0.1	3 ± 0.11	3.06 ± 0.1
VFTALLRLFINEEGDWS [ITC1]	3.4 ± 0.29	2.08 ± 0.17		
HSRILPKKALKVKAGVR [RRP43]	1.73 ± 0.046	1.63 ± 0.054	1.57 ± 0.082	1.6 ± 0.032
KELMLQSKKLIEEKLSS [YIL149C/MLP2]	2.95 ± 0.12	2.96 ± 0.11	2.72 ± 0.11	3.05 ± 0.07
LMNGVKPFKSFLKKNII [FAS1]			3.36 ± 0.16	3.27 ± 0.087
